From paper PMC11314397, “Purification and Characterization of Proteinaceous Thermostable α-Amylase Inhibitor from Sardinian Common Bean Nieddone Cultivar (Phaseolus vulgaris L.)” (Plants, 2024)

What was measured:
[1] = target: α-amylase from Tenebrio molitor (Tenebrio molitor (endogenous in larvae)) (UniProt P56634)
[2] = target: T1, α-amylase from porcine pancreas (porcine, UniProt P00690 16-511); experiment: enzyme inhibition kinetics (Lineweaver-Burk); porcine α-amylase with 0, 0.25 and 0.50 µM α-AI, CNP-G3 0.1 to 5 mM as substrate, 250 mM sodium phosphate pH 6.5, 60 mM NaCl, 5 mM CaCl2, 500 mM KSCN, 37 °C, 10 min preincubation; mixed-type inhibition; details: both partners purified
T1 construct: pancreatic α-amylase, pig, from porcine pancreas; also called porcine pancreatic α-amylase; pig α-amylase; source: bought: Sigma-Aldrich (Type VI-B A3176-2.5MU)
T1 sequence (looked up): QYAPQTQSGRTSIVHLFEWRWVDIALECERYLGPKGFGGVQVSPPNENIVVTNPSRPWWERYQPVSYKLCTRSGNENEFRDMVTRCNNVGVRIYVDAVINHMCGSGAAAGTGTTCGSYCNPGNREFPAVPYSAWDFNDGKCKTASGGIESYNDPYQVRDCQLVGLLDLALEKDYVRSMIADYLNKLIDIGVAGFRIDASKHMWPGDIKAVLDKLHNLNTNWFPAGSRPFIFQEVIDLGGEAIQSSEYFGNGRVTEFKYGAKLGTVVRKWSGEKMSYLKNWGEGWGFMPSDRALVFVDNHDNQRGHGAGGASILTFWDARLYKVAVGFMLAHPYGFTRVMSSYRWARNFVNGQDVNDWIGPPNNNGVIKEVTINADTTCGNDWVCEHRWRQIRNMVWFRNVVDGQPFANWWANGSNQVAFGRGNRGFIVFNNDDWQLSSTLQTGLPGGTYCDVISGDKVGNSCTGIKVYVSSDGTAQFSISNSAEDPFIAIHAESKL

Chain of α-amylase from Tenebrio molitor (Tenebrio molitor (endogenous in larvae)) (P56634 whole entry): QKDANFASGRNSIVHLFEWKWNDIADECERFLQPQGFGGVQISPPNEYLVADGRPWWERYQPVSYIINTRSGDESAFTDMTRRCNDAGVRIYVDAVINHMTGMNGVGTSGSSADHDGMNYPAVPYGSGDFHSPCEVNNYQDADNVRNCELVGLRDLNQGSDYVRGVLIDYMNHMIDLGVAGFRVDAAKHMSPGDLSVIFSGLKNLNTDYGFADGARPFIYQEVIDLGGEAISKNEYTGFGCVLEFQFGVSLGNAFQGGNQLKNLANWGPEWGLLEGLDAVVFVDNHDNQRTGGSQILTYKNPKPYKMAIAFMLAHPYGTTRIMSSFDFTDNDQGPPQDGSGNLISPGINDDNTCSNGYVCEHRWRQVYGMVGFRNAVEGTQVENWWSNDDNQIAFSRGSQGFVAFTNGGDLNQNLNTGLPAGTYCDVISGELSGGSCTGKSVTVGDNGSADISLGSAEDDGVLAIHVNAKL

B1: α-amylase inhibitor (α-AI) purified from Phaseolus vulgaris Nieddone cultivar (complex)
chain 1: ATETSFIIDAFNKTNLILQGDATVSSNGNLQLSYNSYDSMSRAFYSAPIQIRDSTTGNVASFDTNFTMNIRTHRQAN
chain 2: SAVGLDFVLVPVQPESKGDTVTVEFDTFLSRISIDVNNNDIKSVPWDVHDYDGQNAEVRITYNSSTKVFSVSLSNPSTGKSNNVSTTVELEKEVYDWVSVGFSATSGAYQWSYETHDVLSWSFSSKFINLKDQKSERSN
modifications: native seed glycoprotein (N-glycosylated; sites not given); alpha2beta2 tetramer cleaved after Asn77 (mature numbering, = Asn100 of precursor). Reference sequence P02873 used: Nieddone cultivar …
[1]
  inhibitory power against α-amylase, CNP-G3 assay; susceptibility against that of human salivary and porcine pancreatic α-amylase: 3 fold
[2]
  Ki: 170 nM
